# Measurements taken from US20230212587A1, “Mutant Hydroxyphenylpyruvate Dioxygenase Polypeptide, Encoding Gene Thereof and Use Therefor” (Beijing Dabeinong Biotechnology Co., Ltd., priority 2019, published 2023).
# B1: AsHPPD-02: Avena sativa native HPPD, SEQ ID NO: 1; gene SEQ ID NO: 3 (protein, listed as Avena sativa)
# chain: MPPTPATATGAAAAAVTPEHAARSFPRVVRVNPRSDRFPVLSFHHVELWCADAASAAGRFSFALGAPLAARSDLSTGNSAHASLLLRSGALAFLFTAPYAPPPQEAATAAATASIPSFSADAARTFAAAHGLAVRSVGVRVADAAEAFRVSVAGGARPAFAPADLGHGFGLAEVELYGDVVLRFVSYPDETDLPFLPGFERVSSPGAVDYGLTRFDHVVGNVPEMAPVIDYMKGFLGFHEFAEFTAEDVGTTESGLNSVVLANNSEAVLLPLNEPVHGTKRRSQIQTYLEYHGGPGVQHIALASNDVLRTLREMRARTPMGGFEFMAPPQAKYYEGVRRIAGDVLSEEQIKECQELGVLVDRDDQGVLLQIFTKPVGDRPTFFLEMIQRIGCMEKDEVGQEYQKGGCGGFGKGNFSELFKSIEDYEKSLEVKQSVVAQKS
# modifications: AsHPPD Amido Acid Sequence
# Test system: Arabidopsis thaliana T1 plants
# Assay: Topramezone tolerance of transgenic Arabidopsis thaliana T1 plants (pesticide damage grade by bleached leaf area, score, resistance evaluation)
# Format: in vivo
# Design: score: scale not given here
# Details: for Classification and statistics of the grade of pesticide damage Grade 0 / Classification and statistics of the grade of pesticide damage Grade 1 / Classification and statistics of the grade of pesticide damage Grade 2 / Classification and statistics of the grade of pesticide damage Grade 3: number of plants (of 16) in this grade; for Classification and statistics of the grade of pesticide damage Grade 0 / Classification and statistics of the grade of pesticide damage Grade 1 / Classification and statistics of the grade of pesticide damage Grade 2 / Classification and statistics of the grade of pesticide damage Grade 3 / Scores / Resistance evaluation: 7 DAT
# From the text: The Arabidopsisthaliana T1 plants into which the AsHPPDm-F372A-02 nucleotide sequence was introduced, Arabidopsis thaliana T1 plants into which the AsHPPD-02 nucleotide sequence was introduced and wild-type Arabidopsisthaliana plants (18 days after sowing) were sprayed with topramezone at four different concentrations, i.e., 25 g ai/ha (one-fold field concentration, 1×), 50 g ai/ha (two-fold field concentration, 2×), 100 g ai/ha (four-fold field concentration, 4×) and 0 g ai/ha (water, 0×) to determine the tolerance of Arabidopsisthaliana to the herbicide. The degree of damage caused by the herbicide was measured for each plant according to the proportion of bleached leaf area (the proportion of bleached leaf area=bleached leaf area/total leaf area×100%) 7 days after spraying (7 DAT): the case where there is basically no bleached phenotype is defined as grade 0, the case where the proportion of bleached leaf area is less than 50% is defined as grade 1,the case where the proportion of bleached leaf area is more than 50% is defined as grade 2, and the case where the proportion of bleached leaf area is 100% grade is defined as grade 3.
# (§1) According to the method as described above in point 6 of Example 1, the aforementioned Arabidopsisthaliana T1 plants and wild-type Arabidopsisthaliana plants (18 days after sowing) were sprayed with topramezone at three different concentrations respectively, i.e., 25 g ai/ha (one-fold field concentration, 1×), 100 g ai/ha (four-fold field concentration, 4×) and 0 g ai/ha(water, 0×) to detect the tolerance of Arabidopsisthaliana to the herbicide.
# as §1, with “1x),” for “1×),”, “4x)” for “4×)”, “ai/ha (water, 0x)” for “ai/ha(water, 0×)”
# According to the method as described above in point 6 of Example 1, the above-mentioned Arabidopsisthaliana T1 plants, Arabidopsisthaliana T1 plants into which the AsHPPD-02 nucleotide sequence was introduced, Arabidopsisthaliana T1 plants into which the PfHPPD-02 nucleotide sequence was introduced, and wild-type Arabidopsisthaliana plants (18 days after sowing) were sprayed with topramezone at four different concentrations respectively, that is, 25 g ai/ha (one-fold field concentration, 1x), 50 g ai/ha (two-fold field concentration, 2x), 100 g ai/ha (four-fold field concentration, 4x) and 0 g ai/ha (water, Ox) to detect the herbicide tolerance of Arabidopsisthaliana.
# According to the method as described in point 6 of Example 1, the above-mentioned Arabidopsisthaliana T1 plants and wild-type Arabidopsisthaliana plants (18 days after sowing) were sprayed with topramezone at two different concentrations respectively, that is, 25 g ai/ha (one-fold field concentration, 1x) and 100 g ai/ha (four-fold field concentration, 4x) to detect the herbicide tolerance of Arabidopsisthaliana,. […]
# [1] = non-372 position mutants, number of plants (of 20) in this grade, topramezone 25 g ai/ha (1x)
# [2] = non-372 position mutants, number of plants (of 20) in this grade, topramezone 100 g ai/ha (4x)
# [3] = topramezone 25 g ai/ha (1x), HPPD from Avena sativa source
# [4] = topramezone 25 g ai/ha (1x), number of plants, HPPD from Avena sativa source
# [5] = topramezone 25 g ai/ha, mutation combination, Table 8
# [6] = topramezone 50 g ai/ha (2x), HPPD from Avena sativa source
# [7] = topramezone 50 g ai/ha (2x), number of plants, HPPD from Avena sativa source
# [8] = topramezone 100 g ai/ha (4x), HPPD from Avena sativa source
# [9] = topramezone 100 g ai/ha (4x), number of plants, HPPD from Avena sativa source
# [10] = topramezone 100 g ai/ha, mutation combination, Table 8
molecule,measurement,setting,value
B1,"tolerance to topramezone, in words",Arabidopsis thaliana T1 plants sprayed with topramezone,no or relatively low tolerance
same,Grade 0,[1],0
same,Grade 1,[1],5
same,Grade 2,[1],13
same,Grade 3,[1],2
same,Grade 0,[2],0
same,Grade 1,[2],0
same,Grade 2,[2],4
same,Grade 3,[2],16
same,score,"non-372 position mutants, score for pesticide damage 0-100, topramezone 25 g ai/ha (1x)",62
same,score,"non-372 position mutants, score for pesticide damage 0-100, topramezone 100 g ai/ha (4x)",93
same,Resistance Grade,"non-372 position mutants, topramezone 25 g ai/ha (1x)",poorly resistant (poorly resistant plants (scores 34-67))
same,Resistance Grade,"non-372 position mutants, topramezone 100 g ai/ha (4x)",non-resistant (non-resistant plants (scores 68-100))
same,Classification and statistics of the grade of pesticide damage Grade 0,topramezone 25 g ai/ha (1x),0
same,Classification and statistics of the grade of pesticide damage Grade 1,topramezone 25 g ai/ha (1x),4
same,Classification and statistics of the grade of pesticide damage Grade 2,topramezone 25 g ai/ha (1x),12
same,Classification and statistics of the grade of pesticide damage Grade 3,topramezone 25 g ai/ha (1x),0
same,Classification and statistics of the grade of pesticide damage Grade 0,topramezone 50 g ai/ha (2x),0
same,Classification and statistics of the grade of pesticide damage Grade 1,topramezone 50 g ai/ha (2x),0
same,Classification and statistics of the grade of pesticide damage Grade 2,topramezone 50 g ai/ha (2x),6
same,Classification and statistics of the grade of pesticide damage Grade 3,topramezone 50 g ai/ha (2x),10
same,Classification and statistics of the grade of pesticide damage Grade 0,topramezone 100 g ai/ha (4x),0
same,Classification and statistics of the grade of pesticide damage Grade 1,topramezone 100 g ai/ha (4x),0
same,Classification and statistics of the grade of pesticide damage Grade 2,topramezone 100 g ai/ha (4x),4
same,Classification and statistics of the grade of pesticide damage Grade 3,topramezone 100 g ai/ha (4x),12
same,"tolerance to topramezone, in words","saturation mutation of HPPD from Avena sativa source (label F372X = AsHPPDm-F372X), topramezone 25, 50, 100 g ai/ha",no or low tolerance
same,Scores,"score for pesticide damage 0-100, topramezone 25 g ai/ha (1x)",58
same,Scores,"score for pesticide damage 0-100, topramezone 50 g ai/ha (2x)",88
same,Scores,"score for pesticide damage 0-100, topramezone 100 g ai/ha (4x)",92
same,Resistance evaluation,topramezone 25 g ai/ha (1x),poorly resistant (poorly resistant plants (scores 34-67))
same,Resistance Grade,[3],Poorly resistant
same,score,[3],57
same,Grade 0,[4],2
same,Grade 1,[4],2
same,Grade 2,[4],16
same,Grade 3,[4],0
same,Grade 0 (number of plants),[5],2
same,Grade 1 (number of plants),[5],2
same,Grade 2 (number of plants),[5],16
same,Grade 3 (number of plants),[5],0
same,Resistance Grade,[5],Poorly resistant
same,score,[5],57
same,Resistance evaluation,topramezone 50 g ai/ha (2x),non-resistant (non-resistant plants (scores 68-100))
same,Resistance Grade,[6],Non-resistant
same,score,[6],87
same,Grade 0,[7],0
same,Grade 1,[7],2
same,Grade 2,[7],4
same,Grade 3,[7],14
same,Resistance evaluation,topramezone 100 g ai/ha (4x),non-resistant (non-resistant plants (scores 68-100))
same,Resistance Grade,[8],Non-resistant
same,score,[8],93
same,Grade 0,[9],0
same,Grade 1,[9],0
same,Grade 2,[9],4
same,Grade 3,[9],16
same,Grade 0 (number of plants),[10],0
same,Grade 1 (number of plants),[10],0
same,Grade 2 (number of plants),[10],4
same,Grade 3 (number of plants),[10],16
same,Resistance Grade,[10],Non-resistant
same,score,[10],93
